Source: paper PMC10279719 (Nature Communications, 2023)

Assays:
Details in all cases: both partners purified
[1] = molecular target: T1, PEAK3 tandem peptide, non-phosphorylated (residues 54-74) (human, N-terminal acetyl; C-terminal amide); assay: ITC; second of two sequential titrations ('ternary'); CrkII NSH3 (400 µM) in the syringe titrated into the non-phosphorylated PEAK3 tandem peptide (16.8 µM) with the 14-3-3γ of the first titration, which did not bind, still in the cell; 25 °C, 20 mM HEPES pH 7.4, 150 mM NaCl, 1 mM TCEP
T1 construct: source: synthetic peptide, bought: Mimotopes (95% purity)
T1 peptide: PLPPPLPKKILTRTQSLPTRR

[2] = molecular target: T2, PEAK1^IDR1 (residues 1082-1746), from insect cells (human, UniProt Q9H792 1082-1746, biotin (EZ-Link NHS-PEG4-Biotin, 1:1 molar ratio)); assay: SPR; biotinylated PEAK proteins (with or without Src phosphorylation) captured with a biotin CAPture kit, CrkII NSH3 as analyte; Biacore 8K+, 20 °C, HBS-TP (150 mM NaCl); 1 M NaCl regeneration; steady state
T2 construct: human PEAK1, UniProt Q9H792, residues 1082-1746; Purifies as a homodimer; Phosphorylation at the tandem 14-3-3 motif was not observed
T2 sequence (looked up): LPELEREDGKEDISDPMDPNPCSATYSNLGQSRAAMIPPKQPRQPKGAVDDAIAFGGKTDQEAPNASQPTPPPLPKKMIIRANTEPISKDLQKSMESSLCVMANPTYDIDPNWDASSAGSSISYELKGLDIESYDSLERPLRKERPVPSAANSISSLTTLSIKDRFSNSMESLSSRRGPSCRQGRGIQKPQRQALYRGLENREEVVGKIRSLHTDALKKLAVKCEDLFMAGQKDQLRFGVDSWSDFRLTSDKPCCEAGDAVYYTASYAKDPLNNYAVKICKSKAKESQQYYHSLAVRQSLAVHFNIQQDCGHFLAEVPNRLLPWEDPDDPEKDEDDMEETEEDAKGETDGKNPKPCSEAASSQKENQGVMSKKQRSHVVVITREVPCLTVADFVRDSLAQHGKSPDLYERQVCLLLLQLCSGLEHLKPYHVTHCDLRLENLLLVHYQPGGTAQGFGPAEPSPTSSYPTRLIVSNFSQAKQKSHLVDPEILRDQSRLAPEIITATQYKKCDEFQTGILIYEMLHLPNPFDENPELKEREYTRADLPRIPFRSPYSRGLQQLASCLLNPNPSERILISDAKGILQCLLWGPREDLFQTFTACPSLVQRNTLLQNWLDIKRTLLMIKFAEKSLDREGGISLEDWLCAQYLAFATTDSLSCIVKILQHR

[3] = molecular target: T3, full length PEAK3 (PEAK3^FL, residues 1-473), from insect cells, phosphorylated by Src (human, UniProt Q6ZS72 1-473, phosphoserine at S69; phosphotyrosine at Y24 (by Src in vitro, shown by MS/MS); other Src sites not stated; biotin (EZ-Link NHS-PEG4-Biotin, 1:1 molar ratio)); assay: as above
T3 construct: As Sm27, with Src phosphorylation before immobilisation; also called PEAK3-FL (+ Src phosphorylation); source: Sf21 insect cells, purified as a complex with insect 14-3-3ε,ζ; phosphorylated in vitro with recombinant Src kinase domain
T3 sequence (looked up): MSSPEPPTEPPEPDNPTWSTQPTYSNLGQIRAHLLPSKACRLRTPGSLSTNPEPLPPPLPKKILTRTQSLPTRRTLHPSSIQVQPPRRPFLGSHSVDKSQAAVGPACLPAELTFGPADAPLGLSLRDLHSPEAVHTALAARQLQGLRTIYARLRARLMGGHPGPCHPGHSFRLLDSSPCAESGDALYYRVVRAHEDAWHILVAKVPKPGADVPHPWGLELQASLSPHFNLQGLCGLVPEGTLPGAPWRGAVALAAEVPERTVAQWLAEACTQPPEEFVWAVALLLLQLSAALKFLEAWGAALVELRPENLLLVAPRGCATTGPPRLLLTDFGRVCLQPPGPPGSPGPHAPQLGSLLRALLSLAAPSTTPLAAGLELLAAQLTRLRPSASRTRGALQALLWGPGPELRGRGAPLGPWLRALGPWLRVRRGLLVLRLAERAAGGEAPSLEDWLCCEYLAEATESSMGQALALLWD

[4] = molecular target: T4, full length PEAK3 (PEAK3^FL, residues 1-473), from E. coli (human, UniProt Q6ZS72 1-473, biotin (EZ-Link NHS-PEG4-Biotin, 1:1 molar ratio)); assay: as above
T4 construct: also called PEAK3-FL E.coli; source: E. coli C41 (DE3), purified (two-step purification)
T4 sequence (looked up): T3 sequence (looked up)

[5] = molecular target: T5, PEAK1^IDR1 (residues 1082-1746), from insect cells, phosphorylated by Src (human, UniProt Q9H792 1082-1746, phosphotyrosine at Y1107 (by Src in vitro, shown by MS/MS); other Src sites not stated; biotin (EZ-Link NHS-PEG4-Biotin, 1:1 molar ratio)); assay: as above
T5 construct: human PEAK1, UniProt Q9H792, residues 1082-1746; also called PEAK1-IDR1 (+ Src phosphorylation); source: Sf21 insect cells, purified; phosphorylated in vitro with recombinant Src kinase domain
T5 sequence (looked up): T2 sequence (looked up)

B1: CrkII N-terminal SH3 domain (CrkII^NSH3, residues 134-191) (domain or fragment, human, UniProt P46108-1 134-191, looked up)
chain: AEYVRALFDFNGNDEEDLPFKKGDILRIRDKPEEQWWNAEDSEGKRGMIPVPYVEKYR
notes: human CrkII NSH3 domain, UniProt P46108-1, residues 134-191; Amine coupled to a CM5 chip in a2; analyte in a4; in the syringe in ITC
- stoichiometry N [1]: 0.654
- Kd [2]: 3.7 µM
- Kd [3]: 6.84 µM
- Kd [4]: 9.6 µM
- Kd [5]: 4.11 µM
